Test results reported in patent US20100158890A1, “USE OF THROMBIN MUTANTS TO INHIBIT THE ANTICOAGULATION EFFECT OF THROMBIN INHIBITORS” (priority 2006, published 2010).

Tests used:
[1] = test system: bivalirudin (Angiomax, Medicines Company)
[2] = test system: lepirudin (Refludan, Berlex)
whole blood = test: Thrombelastography (TEG) of clot formation in recalcified whole blood; type: biochemical, human; conditions: for effect on TEG amplitude (strength of clot): anticoagulant alone: bivalirudin 5 μg/ml, lepirudin 1 μg/ml, argatroban 0.5 μg/ml
Method: (§1) For plasma collection, whole blood samples (5 ml, in 3.2% trisodium citrate) were obtained after institutional approval and informed written consent from 6 volunteers that had not received any medication in the preceding 2 weeks. For APTT and thrombin generation experiments blood was centrifuged to obtain platelet poor plasma (PPP) for 20 min at 3000×g. PPP was used immediately or stored for not more than a couple of days at −20° C. For TEG® measurements, whole blood in citrate was used after recalcification within 5 min from collection. In all experiments, the final concentration of recombinant thrombin mutant was 5 μg/ml.
The viscoelastic measurement of clot formation was evaluated using Thrombelastogarphy (TEG®, Haemoscope, Niles, Ill.). […] For TEG® measurements, 360 μl aliquots of the samples were transferred to disposable cups containing […] 0.4 M CaCl2. Effects of W215A/E217A on TEG® variables were evaluated after adding this thrombin mutant (5 μg/ml, final concentration) to respective samples. The TEG® variables, the reaction time (in minutes) which represents the onset of clot formation, and maximum amplitude (in mm) which reflects the strength of clot were compared for different groups (Kawasaki et al. (2004) Anesthesia & Analgesia, 99:1440-1444).

platelet-poor plasma = test: Thrombin generation monitoring by Thrombinoscope in platelet-poor plasma; type: biochemical, human; conditions: for effect on onset and peak of thrombin generation: anticoagulant alone in plasma
Method: Fluorogenic substrate (Z-Gly-Gly-Arg-AMC HCl, molecular weight 616.07) for thrombin generation assay was obtained from Bachem (Switzerland). HEPES (N-2-hydroxyethyl piperazine-N′-2-ethanesulfonic acid), CaCl2, BSA (bovine serum albumin) and DMSO (dimethyl sulfoxide) were from Sigma (Sigma, St Louis, Mo.). Tissue factor was dissolved in 10 ml sterile water and then further diluted with working HEPES buffer (20 mM HEPES, 140 mM NaCl, 5 mg/ml BSA), (1:75). For the preparation of Fluca-buffer 1.75 ml HEPES buffer (pH 7.35, 20 mM HEPES, 60 mg/ml BSA was added to 0.2 ml of 1 M CaCl2 in a glass test tube, mixed, and warmed up for few minutes at 37° C. Just before use 50 μl of 100 mM fluorogenic substrate made in DMSO was added to the HEPES-CaCl2 solution and mixed to dissolve. This buffer now contains 2.5 mM substrate and 100 mM CaCl2.
as §1
In order to evaluate this complex regulation of thrombin generation, the Thrombinoscope® system, which enables automated acquisition of thrombin generation time courses in platelet-rich plasma or in platelet-poor plasma (Hemker et al. (2003) Pathophysiology of Haemostasis & Thrombosis, 33:4-15). The method for the automated estimation of endogenous thrombin potential using a commercially available fluorogenic substrate (Z-GlyGly-Arg-AMC) has been described in detail elsewhere (Hemker et al. (2003) Pathophysiology of Haemostasis & Thrombosis, 33:4-15). Briefly, for the thrombin generation experiments, 80 μl of PPP, and 20 μl of the thrombin generation trigger are added to wells of 96-well microtiter plate (Microfluor2, Labsystems, Finland), followed by 20 μl of substrate-calcium chloride buffer. The reaction is monitored using microplate fluorometer (Fluoroskan Ascent, Labsystems, Finland) set at 390 nm (excitation wavelength) and 460 nm (emission wavelength). […] Additionally, heparin (0.2 or 0.5 U/ml) was also evaluated. Heparin reversal with an appropriate concentration of protamine was used for comparison (1 mg of protamine for each 100 units (1 mg) of heparin). To evaluate the effects of the thrombin mutant on protein C activation (Regnault et al. (2003) Thrombosis and Haemostasis, 89:208-212), soluble thrombomodulin (0.75 μg/ml, final concentration) was added to the sample plasma containing the thrombin mutant.

α-thrombin = α-thrombin (Homo sapiens, UniProt P00734); conditions: association constant for α-thrombin and inhibitor; cited from earlier work
[3] = off-pump coronary surgery, cited from earlier work

Compound | activated partial thromboplastin time (APTT) in bivalirudin-treated plasma [1] | activated partial thromboplastin time (APTT) in lepirudin-treated plasma [2] | effect on TEG amplitude (strength of clot) (whole blood) | effect on onset and peak of thrombin generation (platelet-poor plasma) | kon (α-thrombin) | further results
human thrombin mutant W215A/E217A | The addition of W215A/E217A to plasma shifted APTT values toward normal ranges. | The addition of W215A/E217A to plasma shifted APTT values toward normal ranges. | – | – | – | TEG reaction time and amplitude in bivalirudin-treated whole blood [1]: With addition of W215A/E217A (5 µg/ml), both reaction time and amplitude variables were reversed to normal for all DTIs; onset (latency) of thrombin generation, Thrombinoscope, bivalirudin-treated plasma [1]: W215A/E217A was effective in shortening prolonged latency of thrombin generation.; TEG reaction time and amplitude in lepirudin-treated whole blood [2]: With addition of W215A/E217A (5 µg/ml), both reaction time and amplitude variables were reversed to normal for all DTIs; onset (latency) of thrombin generation, Thrombinoscope, lepirudin-treated plasma [2]: W215A/E217A was effective in shortening prolonged latency of thrombin generation.
catalytic-site blocked thrombin (thrombin saturated with Phe-Pro-Arg-chlormethylketone) | The active site blocked thrombin (FPR-TH) had no effect on APTT prolonged with either DTIs or heparin. | The active site blocked thrombin (FPR-TH) had no effect on APTT prolonged with either DTIs or heparin. | – | – | – | –
Protamine sulfate | – | – | – | – | – | reversal of heparin on TEG (onset, clot strength) (whole blood; protamine sulfate 5 μg/ml, heparin 0.5 U/ml): restores the onset completely, and to a lesser extent clot strength; effect on thrombin generation in the presence of heparin (platelet-poor plasma; heparin 0.2 U/ml, W215A/E217A 5 μg/ml or protamine sulfate 2 μg/ml): reversed the peak level
CC1CNc2c(cccc2S(=O)(=O)N[C@@H](CCCNC(=N)N)C(=O)N2CC[C@@H](C)C[C@@H]2C(=O)O)C1 (stereo partly drawn) [Argatroban, argatroban] | – | – | reduced | prolonged the onset and reduced the peak | – | peak thrombin level (platelet-poor plasma; argatroban at 0.5 and 1 μg/ml, with W215A/E217A added (FIG. 6D)): > 100 nM
lepirudin | – | – | minimally affected | prolonged the onset of thrombin generation, but not the peak level | 290 10^6 M^−1s^−1 | –
bivalirudin | – | – | minimally affected | prolonged the onset of thrombin generation, but not the peak level | 430 10^6 M^−1s^−1 | range of blood loss ([3]; n=50): 320-4,909 ml; 12-hour post-operative chest tube drainage, median [3]: 793 mL
